Test results reported in patent publication US20240141042A1 (INNATE PHARMA, published 2024).

Biological target: T1, Human NKp46 recombinant proteins (human, UniProt O76036 22-258)
T1 construct: also called recombinant human NKp46 proteins
Experiment: SPR, bispecific captured on Protein-A chip
Protocol: SPR measurements were performed on a Biacore T100 apparatus (Biacore GE Healthcare) at 25° C. In all Biacore experiments HBS-EP+(Biacore GE Healthcare) and NaOH 10 mM served as running buffer and regeneration buffer respectively. Sensorgrams were analyzed with Biacore T100 Evaluation software. Protein-A was purchase from (GE Healthcare). Human NKp46 recombinant proteins were cloned, produced and purified at Innate Pharma.
Protein-A proteins were immobilized covalently to carboxyl groups in the dextran layer on a Sensor Chip CM5. The chip surface was activated with EDC/NHS (N-ethyl-N′-(3-dimethylaminopropyl) carbodiimidehydrochloride and N-hydroxysuccinimide (Biacore GE Healthcare)). Protein-A was diluted to 10 μg/ml in coupling buffer (10 mM acetate, pH 5.6) and injected until the appropriate immobilization level was reached (i.e. 2000 RU). Deactivation of the remaining activated groups was performed using 100 mM ethanolamine pH 8 (Biacore GE Healthcare).

B1: CD19-F2-NKp46-3 (bispecific antibody)
chain 1: DIQLTQSPASLAVSLGQRATISCKASQSVDYDGDSYLNWYQQIPGQPPKLLIYDASNLVSGIPPRFSGSGSGTDFTLNIHPVEKVDAATYHCQQSTEDPWTFGGGTKLEIKGGGGSGGGGSGGGGSQVQLQQSGAELVRPGSSVKISCKASGYAFSSYWMNWVKQRPGQGLEWIGQIWPGDGDTNYNGKFKGKATLTADESSSTAYMQLSSLASEDSAVYFCARRETTTVGRYYYAMDYWGQGTTVTVSSGGGSSAPELLGGPSVFLFPPKPKDTLMISRTPEVTCVVVDVSHEDPEVKFNWYVDGVEVHNAKTKPREEQYNSTYRVVSVLTVLHQDWLNGKEYKCKVSNKALPAPIEKTISKAKGQPREPQVYTKPPSREEMTKNQVSLSCLVKGFYPSDIAVEWESNGQPENNYKTTVPVLDSDGSFRLASYLTVDKSRWQQGNVFSCSVMHEALHNHYTQKSLSLSPGSTGSEVQLQQSGPELVKPGASVKISCKTSGYTFTEYTMHWVKQSHGKSLEWIGGISPNIGGTSYNQKFKGKATLTVDKSSSTAYMELRSLTSEDSAVYYCARRGGSFDYWGQGTTLTVSSASTKGPSVFPLAPSSKSTSGGTAALGCLVKDYFPEPVTVSWNSGALTSGVHTFPAVLQSSGLYSLSSVVTVPSSSLGTQTYICNVNHKPSNTKVDKRVEPKSCDKTH
chain 2: DIVMTQSPATLSVTPGDRVSLSCRASQSISDYLHWYQQKSHESPRLLIKYASQSISGIPSRFSGSGSGSDFTLSINSVEPEDVGVYYCQNGHSFPLTFGAGTKLELKRTVAAPSVFIFPPSDEQLKSGTASVVCLLNNFYPREAKVQWKVDNALQSGNSQESVTEQDSKDSTYSLSSTLTLSKADYEKHKVYACEVTHQGLSSPVTKSFNRGEC
notes: Heterodimer with monomeric Fc; also called bi-specific antibody NKp46-3 (F2)
binding result: binds
